Results published in US10428140B2, “Anti-EphA4 antibody” (EISAI R&D MANAGEMENT CO., LTD., priority 2015, dated 2019).

T1: human EphA8 (Homo sapiens, UniProt P29322)
T1 construct: a protein of the extracellular region of each human Eph receptor fused with the SEAP protein and the His tag; made in house; host or cells: Expi293F cells (culture supernatant)
T1 sequence (P29322 28-542 limits assumed): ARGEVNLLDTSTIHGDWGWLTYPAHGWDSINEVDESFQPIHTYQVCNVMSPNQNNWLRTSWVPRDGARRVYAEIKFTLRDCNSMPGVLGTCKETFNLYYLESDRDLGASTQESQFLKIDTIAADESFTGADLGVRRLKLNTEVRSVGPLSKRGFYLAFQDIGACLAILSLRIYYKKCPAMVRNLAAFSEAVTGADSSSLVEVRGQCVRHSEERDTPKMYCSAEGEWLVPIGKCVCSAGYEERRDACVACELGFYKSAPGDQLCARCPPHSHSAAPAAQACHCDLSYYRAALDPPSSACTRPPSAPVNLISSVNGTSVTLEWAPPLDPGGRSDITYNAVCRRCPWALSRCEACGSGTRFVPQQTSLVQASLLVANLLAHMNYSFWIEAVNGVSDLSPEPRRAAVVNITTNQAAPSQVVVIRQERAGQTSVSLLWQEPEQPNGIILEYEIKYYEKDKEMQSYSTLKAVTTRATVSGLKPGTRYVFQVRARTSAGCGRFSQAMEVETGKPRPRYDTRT

T2: human EphB1 (Homo sapiens, UniProt P54762)
T2 construct: a protein of the extracellular region of each human Eph receptor fused with the SEAP protein and the His tag; made in house; host or cells: Expi293F cells (culture supernatant)
T2 sequence (P54762 18-540 limits assumed): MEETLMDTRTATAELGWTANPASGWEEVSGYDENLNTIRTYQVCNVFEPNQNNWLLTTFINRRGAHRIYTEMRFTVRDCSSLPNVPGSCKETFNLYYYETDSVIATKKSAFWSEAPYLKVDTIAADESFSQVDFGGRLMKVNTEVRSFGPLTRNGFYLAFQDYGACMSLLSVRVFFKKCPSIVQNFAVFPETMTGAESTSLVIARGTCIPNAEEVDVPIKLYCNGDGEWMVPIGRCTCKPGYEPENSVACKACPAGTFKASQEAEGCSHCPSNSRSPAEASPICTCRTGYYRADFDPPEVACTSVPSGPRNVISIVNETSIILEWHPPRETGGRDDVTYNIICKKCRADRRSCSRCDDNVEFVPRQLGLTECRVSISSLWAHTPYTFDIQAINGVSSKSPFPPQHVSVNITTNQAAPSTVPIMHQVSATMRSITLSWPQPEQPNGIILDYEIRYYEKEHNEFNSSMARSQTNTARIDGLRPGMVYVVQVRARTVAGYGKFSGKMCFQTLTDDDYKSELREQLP


Assays:
Test in all cases: Selectivity ELISA of humanized antibodies for human Eph receptor
Type in all cases: binding
[1] = molecular target: SEAP-His (Homo sapiens, UniProt P05187); details: coated protein 1 nM
SEAP-His, sequence (P05187 23-511 limits assumed): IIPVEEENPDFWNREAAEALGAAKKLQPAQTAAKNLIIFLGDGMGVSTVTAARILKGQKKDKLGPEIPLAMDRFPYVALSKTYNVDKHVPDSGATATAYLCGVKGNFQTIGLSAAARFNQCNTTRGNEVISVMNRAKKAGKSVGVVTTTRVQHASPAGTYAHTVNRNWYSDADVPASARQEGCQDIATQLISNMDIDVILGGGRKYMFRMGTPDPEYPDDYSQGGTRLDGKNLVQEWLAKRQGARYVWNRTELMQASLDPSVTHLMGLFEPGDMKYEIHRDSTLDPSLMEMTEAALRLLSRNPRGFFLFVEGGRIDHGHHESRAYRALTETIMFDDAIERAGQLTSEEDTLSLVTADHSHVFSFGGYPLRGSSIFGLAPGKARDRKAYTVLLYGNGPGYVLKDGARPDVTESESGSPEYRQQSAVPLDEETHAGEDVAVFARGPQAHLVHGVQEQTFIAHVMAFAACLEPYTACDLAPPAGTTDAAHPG
Procedure, shortened: (§1)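 Steps: coat anti-His antibody; block, then 1% BlockAce overnight at 4 °C; add Eph receptor extracellular region-SEAP-His (1 nM final) 1 h; add humanized antibody 1 h; add HRP anti-IgG 1 h; develop TMB; stop with acid; read 450 nm.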

[2] = molecular target: T3, human EphA2 (Homo sapiens, UniProt P29317); details: coated protein 1 nM
T3 construct: a protein of the extracellular region of each human Eph receptor fused with the SEAP protein and the His tag; made in house; host or cells: Expi293F cells (culture supernatant)
T3 sequence (P29317 24-537 limits assumed): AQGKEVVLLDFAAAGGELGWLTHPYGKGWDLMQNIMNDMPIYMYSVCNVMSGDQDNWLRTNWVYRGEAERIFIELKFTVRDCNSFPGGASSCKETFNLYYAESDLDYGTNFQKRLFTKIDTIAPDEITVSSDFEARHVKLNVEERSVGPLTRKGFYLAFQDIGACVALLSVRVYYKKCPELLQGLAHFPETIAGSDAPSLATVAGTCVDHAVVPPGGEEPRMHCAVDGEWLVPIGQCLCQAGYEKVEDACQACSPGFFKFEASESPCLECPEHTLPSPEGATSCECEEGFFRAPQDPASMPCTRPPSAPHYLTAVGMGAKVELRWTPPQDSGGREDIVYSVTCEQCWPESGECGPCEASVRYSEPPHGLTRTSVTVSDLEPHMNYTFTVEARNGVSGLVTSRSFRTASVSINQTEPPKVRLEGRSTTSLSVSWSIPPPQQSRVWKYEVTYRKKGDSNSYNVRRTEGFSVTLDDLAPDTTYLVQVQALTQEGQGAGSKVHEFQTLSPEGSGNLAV
Procedure, shortened: as §1

[3] = molecular target: T4, human EphA4 (Homo sapiens, UniProt P54764); details: coated protein 1 nM; reference set to 100%
T4 construct: made in house; not restated for the human SEAP-His protein
T4 sequence (P54764 20-547): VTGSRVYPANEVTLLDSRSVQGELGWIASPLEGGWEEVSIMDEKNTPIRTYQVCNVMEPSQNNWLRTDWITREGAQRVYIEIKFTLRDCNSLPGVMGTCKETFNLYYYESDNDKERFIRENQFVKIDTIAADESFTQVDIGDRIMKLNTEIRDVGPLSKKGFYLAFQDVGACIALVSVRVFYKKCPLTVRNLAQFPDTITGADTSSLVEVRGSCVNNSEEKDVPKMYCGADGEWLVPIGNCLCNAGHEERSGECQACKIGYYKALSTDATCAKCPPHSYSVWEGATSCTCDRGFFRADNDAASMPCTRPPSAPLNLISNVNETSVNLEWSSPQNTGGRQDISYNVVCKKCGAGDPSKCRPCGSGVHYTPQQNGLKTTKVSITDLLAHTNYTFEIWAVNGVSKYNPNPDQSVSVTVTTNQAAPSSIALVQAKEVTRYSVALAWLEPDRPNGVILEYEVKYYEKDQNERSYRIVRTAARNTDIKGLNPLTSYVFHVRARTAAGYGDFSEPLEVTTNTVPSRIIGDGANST
Procedure, shortened: as §1

[4] = molecular target: T5, human EphA5 (Homo sapiens, UniProt P54756); details: coated protein 1 nM
T5 construct: a protein of the extracellular region of each human Eph receptor fused with the SEAP protein and the His tag; made in house; host or cells: Expi293F cells (culture supernatant)
T5 sequence (P54756 25-573 limits assumed): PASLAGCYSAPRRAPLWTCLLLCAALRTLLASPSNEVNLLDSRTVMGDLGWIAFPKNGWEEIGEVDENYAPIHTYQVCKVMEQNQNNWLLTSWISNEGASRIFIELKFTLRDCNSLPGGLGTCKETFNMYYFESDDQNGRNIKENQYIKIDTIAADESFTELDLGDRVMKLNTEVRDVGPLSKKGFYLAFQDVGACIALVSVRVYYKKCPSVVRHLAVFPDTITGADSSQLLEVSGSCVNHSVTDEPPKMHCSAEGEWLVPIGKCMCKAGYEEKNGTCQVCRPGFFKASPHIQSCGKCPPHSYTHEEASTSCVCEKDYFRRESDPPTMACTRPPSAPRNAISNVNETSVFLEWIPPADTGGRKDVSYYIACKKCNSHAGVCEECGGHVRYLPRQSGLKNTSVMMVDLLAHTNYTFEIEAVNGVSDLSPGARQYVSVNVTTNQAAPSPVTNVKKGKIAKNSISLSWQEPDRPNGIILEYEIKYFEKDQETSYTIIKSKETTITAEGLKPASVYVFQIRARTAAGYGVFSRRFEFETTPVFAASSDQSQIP
Procedure, shortened: as §1

[5] = molecular target: T1, human EphA8; details: coated protein 1 nM
Procedure, shortened: as §1

[6] = molecular target: T2, human EphB1; details: coated protein 1 nM
Procedure, shortened: as §1

Molecule	SEAP-His: absorbance at 450 nm, percentage with respect to hEphA4-SEAP-His as 100% [1] [%]	hEphA2-SEAP-: absorbance at 450 nm, percentage with respect to hEphA4-SEAP-His as 100% [2] [%]	hEphA4-SEAP-: absorbance at 450 nm, percentage with respect to hEphA4-SEAP-His as 100% [3] [%]	hEphA5-SEAP-: absorbance at 450 nm, percentage with respect to hEphA4-SEAP-His as 100% [4] [%]	hEphA8-SEAP-: absorbance at 450 nm, percentage with respect to hEphA4-SEAP-His as 100% [5] [%]	hEphB1-SEAP-: absorbance at 450 nm, percentage with respect to hEphA4-SEAP-His as 100% [6] [%]
75 (antibody, synthetic humanized antibody heavy chain variable region sequence; synthetic humanized antibody light chain variable region sequence; synthetic antibody constant region sequence) VH: QVQLVQSGSELKKPGASVKVSCKASGYTFTDYSMHWVRQAPGQGLEWMGWINTETGEPTYAQGFTGRFVFSLDTSVSTAYLQISSLKAEDTAVYYCARIPLYYYGSRYWYFDVWGQGTTVTVSS VL: DIQMTQSPSSLSASVGDRVTITCRASENIYRNLAWYQQKPGKAPKLLVYAATNLADGVPSRFSGSGSGTDYTLTISSLQPEDFATYYCQHFWGTPWTFGQGTKVEIK ASTKGPSVFPLAPSSKSTSGGTAALGCLVKDYFPEPVTVSWNSGALTSGVHTFPAVLQSSGLYSLSSVVTVPSSSLGTQTYICNVNHKPSNTKVDKRVEPKSCDKTHTCPPCPAPPAAAPSVFLFPPKPKDTLMISRTPEVTCVVVDVSHEDPEVQFNWYVDGVEVHNAKTKPREEQFNSTFRVVSVLTVVHQDWLNGKEYKCKVSNKGLPAPIEKTISKTKGQPREPQVYTLPPSREEMTKNQVSLTCLVKGFYPSDIAVEWESNGQPENNYKTTPPMLDSDGSFFLYSKLTVDKSRWQQGNVFSCSVMHEALHNHYTQKSLSLSPG	4.4	4.6	100	4.7	4.8	4.4
67 (antibody, V domains shown, synthetic humanized antibody heavy chain variable region sequence; synthetic humanized antibody light chain variable region sequence) VH: QIQLVQSGSELKKPGASVKVSCKASGYTFTDYSMHWVRQAPGQGLKWMGWINTETGEPTYAQGFTGRFVFSLDTSVSTAYLQISSLKAEDTAVYYCARIPLYYYGSRYWYFDVWGQGTTVTVSS VL: DIQMTQSPSSLSASVGDRVTITCRASENIYRNLAWYQQKPGKAPKLLVYAATNLADGVPSRFSGSGSGTDYTLTISSLQPEDFATYYCQHFWGTPWTFGQGTKVEIK	5.0	4.6	100	4.8	4.7	4.6
156 (antibody, V domains shown, synthetic humanized antibody heavy chain variable region sequence; synthetic humanized antibody light chain variable region sequence) VH: QIQLVQSGSELKKPGASVKVSCKASGYTFTDYSMHWVRQAPGQGLKWMGWINTETGEPTYAQGFTGRFVFSLDTSVSTAYLQISSLKAEDTAVYYCARIPLYYYGSRYWYFDVWGQGTTVTVSS VL: DIQMTQSPSSLSASVGDRVTITCRASENIYRNLAWYQQKPGKAPQLLLYAATNLADGVPSRFSGSGSGTDYTLTISSLQPEDFATYYCQHFWGTPWTFGQGTKVEIK	5.4	5.5	100	5.7	5.5	5.4
78 (antibody, V domains shown, synthetic humanized antibody heavy chain variable region sequence; synthetic humanized antibody light chain variable region sequence) VH: QVQLVQSGSELKKPGASVKVSCKASGYTFTDYSMHWVRQAPGQGLKWMGWINTETGEPTYADDFKGRFVFSLDTSVSTAYLQISSLKAEDTAVYYCARIPLYYYGSRYWYFDVWGQGTTVTVSS VL: DIQMTQSPSSLSASVGDRVTITCRASENIYRNLAWYQQKPGKAPKLLVYAATNLADGVPSRFSGSGSGTDYTLTISSLQPEDFATYYCQHFWGTPWTFGQGTKVEIK	5.3	4.9	100	5.1	5.4	5.0
136 (antibody, V domains shown, synthetic humanized antibody heavy chain variable region sequence; synthetic humanized antibody light chain variable region sequence) VH: QVQLVQSGSELKKPGASVKVSCKASGYTFTDYSMHWVRQAPGQGLKWMGWINTETGEPTYADDFKGRFVFSLDTSVSTAYLQISSLKAEDTAVYYCARIPLYYYGSRYWYFDVWGQGTTVTVSS VL: EIVMTQSPATLSVSPGERATLSCRASENIYRNLAWYQQKPGQSPRLLIYAATNLADGIPARFSGSGSGTEYTLTISSLQSEDFAVYYCQHFWGTPWTFGQGTKVEIK	5.2	5.1	100	5.2	5.4	5.2
77 (antibody, V domains shown, synthetic humanized antibody heavy chain variable region sequence; synthetic humanized antibody light chain variable region sequence) VH: QVQLVQSGSELKKPGASVKVSCKASGYTFTDYSMHWVRQAPGQGLEWMGWINTETGEPTYADDFKGRFVFSLDTSVSTAYLQISSLKAEDTAVYYCARIPLYYYGSRYWYFDVWGQGTTVTVSS VL: DIQMTQSPSSLSASVGDRVTITCRASENIYRNLAWYQQKPGKAPKLLVYAATNLADGVPSRFSGSGSGTDYTLTISSLQPEDFATYYCQHFWGTPWTFGQGTKVEIK	4.7	4.5	100	4.4	4.8	4.6
76 (antibody, V domains shown, synthetic humanized antibody heavy chain variable region sequence; synthetic humanized antibody light chain variable region sequence) VH: QVQLVQSGSELKKPGASVKVSCKASGYTFTDYSMHWVRQAPGQGLKWMGWINTETGEPTYAQGFTGRFVFSLDTSVSTAYLQISSLKAEDTAVYYCARIPLYYYGSRYWYFDVWGQGTTVTVSS VL: DIQMTQSPSSLSASVGDRVTITCRASENIYRNLAWYQQKPGKAPKLLVYAATNLADGVPSRFSGSGSGTDYTLTISSLQPEDFATYYCQHFWGTPWTFGQGTKVEIK	5.5	4.8	100	5.3	5.5	4.9
